Values joined by “and” are separate entries in the source; they are usually repeats but may differ in a detail not shown here. Equal values may be shown once.

A word on the Kd: it is the concentration at which binding is half-saturated. Low values mean tighter binding, high ones weaker binding.

In one assay the target is APC (Homo sapiens, UniProt P04070). Put plainly: Surface plasmon resonance, immobilized APC. The following applies: no heparin. The arrangement: purchased Haematologic Technologies. The assay is classed as binding. The method, then:
A: 70 μg of DrKIn-I in 0.1 ml equilibrating buffer (20 mM Tris-HCl, pH 8.0) was applied to a 5 ml HiTrap Heparin column and eluted with a 50 ml gradient from 0.0-1.0 M NaCl. […] The thin lines represent the global fit to the response data. […] Results shown are means±SD of three experiments. Representative binding traces are shown.
Biacore T200 (GE Healthcare) was used for analysis. APC or PC dissolved in 10 mM acetate buffer (pH 5.0) was immobilized on a CM5 sensor chip to a response unit (RU) of 1000 with an amine coupling kit. Associations and dissociations of DrKIn-I were performed in 10 mM HEPES (N-2-hydroxyethylpiperazine-N′-2-ethanesulfonic acid; pH 7.4), 150 mM NaCl, 3 mM EDTA (ethylenediaminetetraacetic acid) and 0.05% P20 with a flow rate of 60 μl/min. […] Binding kinetics were determined by global fitting to 1:1 Langmuir binding model using the Biaevaluation software (GE Healthcare).
For orientation: Surface plasmon resonance follows binding to a sensor surface in real time, without labels.

The next assay concerns FVIII-deficient plasma. Briefly: Thrombin generation assay in FVIII-deficient plasma. The following applies: 100 nM TM, 2 μg/ml heparan sulfate. It counts as biochemical. The method, then: (A) Representative thrombin generation curves in FVIII-deficient and FIX-deficient plasma performed in the presence of heparan sulfate (2 μg/ml), TM (100 nM) and varying concentrations of DrKIn-I (●, 0 nM; ▪, 20 nM; ▴, 40 nM; ▾, 80 nM; ◯, 200 nM). Dashed lines represent thrombin generation in the absence of TM and DrKIn-I. (B-C) Activity in FVIII-deficient (B) and FIX-deficient (C) plasma. Left panels show ETP; right panels, peak thrombin. For comparison, dashed lines represent the activity of normal plasma containing TM and heparan sulfate in the absence of the inhibitor. Results are represented as means±SEM of at least three independent experiments.
Briefly, 80 μl of either normal plasma, protein C-deficient plasma, FVIII-deficient plasma or FIX deficient plasma containing 2 μM corn trypsin inhibitor, 2 μg/ml heparan sulfate (four disaccharide units long), 30 μM DOPC/DOPS/DOPE (60:20:20) and 100 nM recombinant TM was incubated with 20 μl of 500-fold diluted TF solution (Innovin; Dade Behring) in the absence or presence of the indicated concentrations of DrKIn-I. Following incubation for 3 minutes at 37° C., thrombin generation was initiated by the dispensation of 20 μl of 2.5 mM fluorogenic substrate (Z-Gly-Gly-Arg-AMC.HCl) dissolved in 0.15 M NaCl, 60 mg/ml BSA and 100 mM CaCl2. […] Results were evaluated using the Technothrombin TGA software (Technoclone).

A further assay deals with APC in normal plasma. Briefly: APTT-based APC resistance assay in normal plasma. It counts as biochemical. The following applies: 200 nM DrKIn-I, 40 nM APC, 2 μg/ml heparan sulfate. The method, then:
APTT-based clotting times were measured in normal, FVIII-deficient and FIX-deficient plasma containing 2 μg/ml heparan sulfate in the presence or absence of 40 nM APC and the indicated concentrations of DrKIn-I. Results shown are means±S.D. of at least three experiments.
50 μl of normal plasma, FVIII-deficient plasma or FIX-deficient plasma supplemented with 2 μg/ml heparan sulfate (four disaccharide units long) was exposed to APC (40 nM) and varying concentrations of DrKIn-I (50-200 nM). 50 μl of activated partial thromboplastin (APTT) reagent (HYPHEN Biomed) was added and incubated for 1 minute at 37° C. Finally, clotting was initiated by adding 50 μl of 20 mM CaCl2. Coagulation times, which reflect the activities of APC, were recorded on a coagulometer (Hemostasis Analyzer KC-1; Sigma Diagnostics).

APC, sequence (P04070 212-450 limits assumed): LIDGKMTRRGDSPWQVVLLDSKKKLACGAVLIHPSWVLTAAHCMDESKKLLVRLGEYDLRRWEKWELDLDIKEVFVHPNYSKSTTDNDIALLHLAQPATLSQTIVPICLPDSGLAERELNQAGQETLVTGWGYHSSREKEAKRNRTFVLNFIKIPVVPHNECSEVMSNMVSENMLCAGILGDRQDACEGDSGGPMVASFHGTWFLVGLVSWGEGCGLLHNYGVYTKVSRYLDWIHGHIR
APC, sequence (P04070 43-197 limits assumed): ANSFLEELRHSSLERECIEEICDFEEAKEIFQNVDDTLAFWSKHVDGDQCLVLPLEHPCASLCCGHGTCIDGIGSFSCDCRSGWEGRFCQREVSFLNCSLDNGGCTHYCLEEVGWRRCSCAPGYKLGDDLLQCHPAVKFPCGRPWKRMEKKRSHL

Regarding DrKIn-I (CGGNDNNFETRKKCRQTCGAPRKGRPT), in the assay with APC (1:1 Langmuir model), the association rate constant is 1.3±0.8×10^7 M^−1 s^−1 and ~1.3×10^7 M^−1 s^−1 and 1.7×10^7 M^−1 s^−1; the dissociation rate constant is reported as 3.4±2.2×10^−2 s^−1. This substance registered a Kd in the assay with APC (25° C.) of approximately 2.6 nM. Moreover, in the assay on FVIII-deficient plasma, the “DrKIn-I concentration correcting ETP to normal levels” value is listed as 60 nM and the “DrKIn-I concentration correcting peak thrombin to normal levels” value amounted to 130 nM. Moreover, in the assay with APC in normal plasma, the clotting time entry is given as “almost completely restored the clotting time to that observed in the absence of APC”.

The record behind these values is patent publication US9206246B2, “Heparin/heparan sulfate-dependent inhibitors of activated protein C and uses thereof in treating hemophilic disorders” (Academia Sinica, priority 2012, dated 2015).
